{"source": "the DeepSol protein solubility set", "data": [{"assay": "soluble on expression in E. coli; label from the status in PepcDB or PDB records", "values": [{"sequence": "MKIIAFYLPQFHQIKENDRWWGKGFTEWTNTKSAQPLFSGHYQPREPYQDFYYDLTTPSVRKWQAEIAKAYGIYGFCYYHYWFKGKRLLETPFNEVLKMKEPDFPFCLSWANEPWTKSWDGLDKHILMPQDYGDISDWKEHFDYLLQAFQDERYIYIDDKPLFIIYRPGHIPDCEKMLNYWNALARANGLKGIYFAETLNSFPLPNINGFDASIQFEPFYTIAHDSSSDINKVIYDSDMQLNVWDYDKVWMYILQRSLPKKKTFPGAFVDWDNTARRKNANSSIFVGSTPEKFTIYLSKQIHRTYSFYNSEFLFINAWNEWAEGTYLEPDKKYGFSYLEGVKNAIDRGMKAYKKDESFLEHHHHHH", "soluble on expression in E. coli": "not soluble"}, {"sequence": "MTFGRLWEKFLASAYYSDLSPRTQKDYLQHQKKLLAVFGKVPADSIKPEHIRRYMDKRGEQSKTQANHEKSSMSRVYSWGYERGYVKANPCAGVSKFKAKNRERYVTDKEYQAVLSVAPLPVFIAMEIAYLCAARVSDVLSLKWEQIGNDGIFIQQGKTGKKQIKAWSPRLQAAIEKAKQLPTSAYVISNQYGNRYMYKGFNEMWVEARNRAGKISGILTDFTFHDLKAKGISDYEGSSRDKQLFSGHKTEGQVLIYDRKVKVSPTLDVPLPENIPRKYSK", "soluble on expression in E. coli": "not soluble"}, {"sequence": "MNGKVIIVTGGSSGMGKYMAKRFVSDGANVVITGRRAEALEEAKREIAAPDGGKVLTIPMDVRNPEQVAHMVERTDAEFGRIDALINNAAGNFICPAEKLSINGWNSVINIVLNGTFYCSREVGNYWIQRGLKGNIINIVATYAWHAGAGVIHSASAKAGVLAMTRTLAVEWGKKYGFRVNAIAPGPIERTGGAERLWESEEAERMTLESVPLGRLGTPEEIAAVASFLLSDEAAYINGACITVDGGQWLNRRPF", "soluble on expression in E. coli": "soluble"}, {"sequence": "MNTLISRQLGLLLHAHECVRRDIKIREAAEKNEPAPHAMCKIQDCVIMKEVLKHMTSCKEGPKCNSVHCASSRTILSHWKKCFNEECPVCKPIIEQRTAPPQDTTPAEPKKPEHDQIWHLEVPKTYRSELIEKIYKGIMSNVKPGTLSEAQMDTWKEYSRSAELQIFDTAQKLEAYYHMAREKVCRYQEGFPRRQKTEEKDESDGSEKEDEADDRLEGTSTDYQGS", "soluble on expression in E. coli": "not soluble"}, {"sequence": "MAHHHHHHMKVVEKQLSKKTLKVKKETEKNSTGFMEKKKINKKEKKIYKNNYNNDNIKEEEDILLNQDDFEKKKKKSLENKILLSKKLKEIKLQFKDDDTINNSKKNNWIERLDITSTEYYYLKKTELFGISESREKQLQNITHMNVIQALQKLQELNIKFNRPYDFLADMLKSDIHMEKIRQKILKEHEQAEVRENNKLKRINKKFLKKCGSQKIKSHKEALEKKQNLLKIDQLKKTNNLQNLNVQEFFIKHSKDHDYKAGKITAKKDMKHKKKNFNNKAKKDKGIKNKQIGKKTSINNKRKASSKNSRKSKKMKKKHKHRK", "soluble on expression in E. coli": "soluble"}, {"sequence": "MSLKELEEIRKEIDEVDKIITELFEKRMNLVMEVAEYKEKNSIPVSDSKREKKVIDKNIGYLKNKEYSEVLKEFYINFMNLSKKLERKRIYNEEKTSVNTSIYGLIGEKLGHSHSSYIHKLIFEKVGIKGIYNLFEVPKEKLKESVDTFKIIKCGGLNVTIPYKVEVMKELYEISEKARKIGAVNTLKFSREGISGFNTDYIGFGKMLSKFRVEIKNNICVVLGSGGAARAVLQYLKDNFAKDIYVVTRNPEKTSEIYGEFKVISYDELSNLKGDVIINCTPKGMYPKEGESPVDKEVVAKFSSAVDLIYNPVETLFLKYARESGVKAVNGLYMLVSQAAASEEIWNDISIDEIIVDEIFEVLEEKIKSEGHHHHHH", "soluble on expression in E. coli": "soluble"}, {"sequence": "MAHHHHHHMRCFSTKSTAPTKGFHDNASGKGSNSVPVKSSALFIEALSKRRTIYSLGNKLSQSHSEVIEIIEGTIRECPSSFNIKSSTVVILFGADHQKVWDIVKAALKKVTSEEQYAQSEMKVNNSFAAGAGTILFYEDGAAIKMQQKAFPRYAANVSTFSQQSSAMAQFAVWSALAQDGIGASLQHYNELIEADLRAAFDVPEEWQLIAQMPFGSIETPADKKTRNSDKGRVVVHGAQR", "soluble on expression in E. coli": "soluble"}, {"sequence": "MGSDKIHHHHHHMIIELNKSNSENLTKTELEIIKFINENESILPELSIVEIAHETYSSPATVSRAIRKCGLNGFNELRYRLTVKDENDDIQNMGDIINKSFIEAQRVIEQISLTTLINIIKTINKSSKIYILARGLTEYVAKEFSLKLQLLDFNVVFINDPNIMKIKSKSIKKDELIIIFSLNGNTIELVESAQNANLVGAKVITCCCSESAKLIKYSDLYIVGYKHEHISISEYEVSSRLPLYIISRIIIDYMVRYNNSEN", "soluble on expression in E. coli": "not soluble"}, {"sequence": "MLPEEHLMLRQAVILVGGLGTRLGERTKARPKPMLEIGGRPFLDTLIDELDRYQIFDEILLLAGHKAEIVETHYAGATRGRAKIVVSRETEPLGTGGALVHAAPLLDQHFLLLNGDSLFDFNLLDLIARAQGGRVHMALRDGVVGDRYGRVVLDGDIVRDFIAPGAGATGPVNAGIYVVDKSIIAEIAKLPASLEQDVFPGLVRSGELRGTAYRGYFIDIGIPDDFARADRELREKLQRPAVFFDRDGVLNHDSGYTFETHKLEWIEGAREAVKAVNDAGYFAFVITNQSGVARGYYEEHHVLALHRWMADQMALIGAHIDAFEYCPDHPDGTVARYCRISDRRKPAPGMITDLAQRFSVDMTRSMVVGDKDSDMAAAQAAGLAGHMFEGGNLEAFVKQRLKPADKGLEHHHHHH", "soluble on expression in E. coli": "not soluble"}, {"sequence": "MTVDTEKQQVVRPRNEIAAADCWDVSPLYPNREDWKADLDSFGLKTDGSPTWPELQATQYQLEDSESLLSLLTKLFSVERKLDKLYVYAHLVHDQDITNQEGVADLKSITHLHILFSEEISWIQPALIGLSEPIIAQHLSAPCLAPYRFYLEKIFRLSMHTGTPGEEKILASAFAPFEVASKAFSSLSDSEIPFGQAMDSEGNSHPLSHALASLYMQSTDRELRKTAYLAQCERYYNYRHTFANLLNGKIQAHLFYAKNKKYGSCLESALYHNNIPTTVYTNLMDIVKKNASLITKYYSLKQKALNIKDFHFYDVYAPLSQSEEKKYSYEEAVDLIYDSLSPLGTEYVDILKQGLTTEGWVDKYENLNKRSGAYSSGCYDSYPYILLNYTGTLYDVSVIAHEGGHSMHSYFSRKNQSFHDAQYPIFLAEIASTLNEMLLMDSMLKKSNSKEEKITILTRCLDTIFSTLFRQVLFASFEYEVHSAAEQGIPLTEEYLSSTYKNLQNDFYGGIITFDTLSNIEWARIPHFYYNFYVYQYATGIIAALCFAERILNKEDNALESYMNFLKSGGSDFPLEILKKSGLDMATSEPIYKAFSFIERKIQELSSLI", "soluble on expression in E. coli": "soluble"}, {"sequence": "MSLSSAYQLVIFDWEGTIADTLGVILHTVATEAKMLGFGDIDPYQARKYVDLGLVQAVKKTLPNLTAGQQEDLLQAVQSAMISRPTEVRLIPGVLEFIQQLHQAKVDLAIATNKGHNSLIRALQATELDQLFKVTRSAGQVPAKPCPQMLEEIMEEFGRDPSSTLMIGDSTTDMEMAKRINVNAIGMDFYHQQEDALKAAGALAVFDDYKLLSAYLMLPEAEGHHHHHH", "soluble on expression in E. coli": "soluble"}, {"sequence": "GSHMNLKEQLCFSLYNAQRQVNRYYSNKVFKKYNLTYPQFLVLTILWDESPVNVKKVVTELALDTGTVSPLLKRMEQVDLIKRERSEVDQREVFIHLTDKSETIRPELSNASDKVASASSLSQDEVKELNRLLGKVIHAFDE", "soluble on expression in E. coli": "soluble"}, {"sequence": "MGSDKIHHHHHHMSNSSRLSVASNSQDATSPLRLLVLSNGHGEDVIAVRILQELQRQSNPPEIFALPLVGEGRAYQQLEIPLIGSVRTMPSGGFIYMDGRQLARDVRGGLLQLTLSQIKAVRRWVSSQKKLGNKRAILAVGDIVPLLFATFSGANYAFVGTAKSEYYVRDEAGLLPRKSKDARWENFSGSVYHPWERWLMSRRRCKAVFPRDVLTTETLKQWPIPAFNLGNPMMDGLQPTFSRQQFYSRDSHQQETVRPLMVTLLPGSRPPEAYTNWEKIMIAVSALMASFQERDSVFYTSGTVVFLGAIAPGLDSNILSQSVQSQGWRAESVCPIQLPDPNILTFKQRNAYLLLTQQSYNDCLHLGDFAIAMAGTATEQFIGLGKPAIAIPGNGPQYNPAFAEAQSRHLGSSLILVEQPAEVAEIVQSLFKDPDILQIIAENGLRRMGKPGAALRIAECLQERLS", "soluble on expression in E. coli": "not soluble"}, {"sequence": "SESSESKASSGLPIDLRGKRAFIAGIADDNGYGWAVAKSLAAAGAEILVGTWVPALNIFETSLRRGKFDQSRVLPDGSLMEIKKVYPLDAVFDNPEDVPEDVKANKRYAGSSNWTVQEAAECVRQDFGSIDILVHSLANGPEVSKPLLETSRKGYLAAISASSYSFVSLLSHFLPIMNPGGASISLTYIASERIIPGYGGGMSSAKAALESDTRVLAFEAGRKQNIRVNTISAGPLGSRAAKAIGFIDTMIEYSYNNAPIQKTLTADEVGNAAAFLVSPLASAITGATIYVDNGLNSMGVALDSPVFKDLDK", "soluble on expression in E. coli": "soluble"}, {"sequence": "MGSDKIHHHHHHMSDKTNLSHNVVNKEEFAGDPKPHPAAYTLVREDKGLGSTPKLPLETSYVKGLLKHDKFFQKALSNPIVAREFFEEYLPTEIKALFSPTTLTLENDSFIDPNLKESITDVLYSARINNRDCYIYILCEHQSSSDPHMAFRLFKYMLNIAEKHLISHPDSKKFPFIYPLVYSNDHKKYTAPLNLWDLFENSELVKDTWSNNYQLISLRDISDDKLKENPWLAPLQILMKYIHKPNVFDKWQEISGCLATIAASSSGIEYIKSALSYSLTKI", "soluble on expression in E. coli": "not soluble"}, {"sequence": "SQNRVPSSRTVSYFVAKPSSSEMEKLQLGPEDSILRMERIRFADDIPICFEVASIPYSLVSQYGKSEITNSFYKTLEAKSGHKIGHSNQTISAVQASEQIAEYLEIKRGDAILRVRQVSYFENGLPFEYVRTQYAGSRFEFYLEK", "soluble on expression in E. coli": "soluble"}, {"sequence": "MGSDKIHHHHHHMWKHVKQVDPEIYEVLVNELKRQEYGLELIASENFASLAVIETMGSMLTNKYAEGYPKKRYYGGCEWVDRAEERAIERAKRLFGAKFANVQPHSGSQANMAVYLALAQPGDTIMGMSLSHGGHLTHGAPVNFSGKIFKVVPYGVNLETETIDYDEVRRLALEHKPKIIVAGGSAYARIIDFKRFREIADEVGAYLMVDMAHFAGLVAAGIHPNPLEYAHVVTSTTHKTLRGPRGGLILTNDPEIAKAVDKTIFPGIQGGPLMHVIAAKAVCFKEAMTEEFKEYQKQVVKNAKKMAEEFQKRGYRIVSGGTDTHLFLVDLTPKDITGKAAEKALESCGITVNKNTIPNEKRSPFVASGIRIGTPAVTTRGMKEEEMEEIAEMIDLVLSNVIDENGTVKPEVREEVSKKVRELCERFPLYRDKIEGVEI", "soluble on expression in E. coli": "not soluble"}, {"sequence": "MKLFQVLIISMICLALVEERRDRSNRRRNQSEGGSRSRSESWLGSSGSSRSRSSGRSAASAGSSQAASPAGASAIGSSQAGSSAGSPAAAAAGGSGGADAGAILNGVGGLMRSVGGLAGAAGGAAGGAAGAPAGAPAGASAGASAAPAAQDAGTVLGGVSGVLTGVSGIVSAAGAAKA", "soluble on expression in E. coli": "not soluble"}, {"sequence": "SNIEALADKVRTYLEAGQIDGFVRTLRARPEAGGKVPVFVFHPAGGSTVVYEPLLGRLPADTPMYGFERVEGSIEERAQQYVPKLIEMQGDGPYVLVGWSLGGVLAYACAIGLRRLGKDVRFVGLIDAVRAGEEIPQTKEEIRKRWDRYAAFAEKTFNVTIPAIPYEQLEELDDEGQVRFVLDAVSQSGVQIPAGIIEHQRTSYLDNRAIDTAQIQPYDGHVTLYMADRYHDDAIMFEPRYAVRQPDGGWGEYVSDLEVVPIGGEHIQAIDEPIIAKVGEHMSRA", "soluble on expression in E. coli": "soluble"}]}]}
